Patent publication US20150038673A1
Bridge positions count the residues as written; N and C are the ends. Square brackets hold non-standard residues; d marks the D form.

B1: ECII-22AA Cys/Ser mutant (Gly-)cyclopeptide (formula IX′) (peptide)
peptide: cyclo(RAESDEARRCYNDPKCSDFVTG)
modifications: disulfide 10-16
SMILES: CC(C)[C@@H]1NC(=O)[C@H](Cc2ccccc2)NC(=O)[C@H](CC(=O)O)NC(=O)[C@H](CO)NC(=O)[C@@H]2CSSC[C@H](NC(=O)[C@H](CCCNC(=N)N)NC(=O)[C@H](CCCNC(=N)N)NC(=O)[C@H](C)NC(=O)[C@H](CCC(=O)O)NC(=O)[C@H](CC(=O)O)NC(=O)[C@H](CO)NC(=O)[C@H](CCC(=O)O)NC(=O)[C@H](C)NC(=O)[C@H](CCCNC(=N)N)NC(=O)CNC(=O)[C@H]([C@@H](C)O)NC1=O)C(=O)N[C@@H](Cc1ccc(O)cc1)C(=O)N[C@@H](CC(N)=O)C(=O)N[C@@H](CC(=O)O)C(=O)N1CCC[C@H]1C(=O)N[C@@H](CCCCN)C(=O)N2
B2: ECII-25AA Cys/Ser mutant (Gln-)cyclopeptide (formula VII) (peptide)
peptide: cyclo(ARAESDEARRCYNDPKCSDFVTNRQ)
modifications: disulfide 11-17
SMILES: CC(C)[C@@H]1NC(=O)[C@H](Cc2ccccc2)NC(=O)[C@H](CC(=O)O)NC(=O)[C@H](CO)NC(=O)[C@@H]2CSSC[C@H](NC(=O)[C@H](CCCNC(=N)N)NC(=O)[C@H](CCCNC(=N)N)NC(=O)[C@H](C)NC(=O)[C@H](CCC(=O)O)NC(=O)[C@H](CC(=O)O)NC(=O)[C@H](CO)NC(=O)[C@H](CCC(=O)O)NC(=O)[C@H](C)NC(=O)[C@H](CCCNC(=N)N)NC(=O)[C@H](C)NC(=O)[C@H](CCC(N)=O)NC(=O)[C@H](CCCNC(=N)N)NC(=O)[C@H](CC(N)=O)NC(=O)[C@H]([C@@H](C)O)NC1=O)C(=O)N[C@@H](Cc1ccc(O)cc1)C(=O)N[C@@H](CC(N)=O)C(=O)N[C@@H](CC(=O)O)C(=O)N1CCC[C@H]1C(=O)N[C@@H](CCCCN)C(=O)N2
B3: β1-ECII-18AA Cys/Ser cyclopeptide mutant with D-Glu ring closure (formula VIII) (peptide)
peptide: cyclo(ADEARRCYNDPKCSDFV[dE])
modifications: disulfide 7-13
SMILES: CC(C)[C@@H]1NC(=O)[C@H](Cc2ccccc2)NC(=O)[C@H](CC(=O)O)NC(=O)[C@H](CO)NC(=O)[C@@H]2CSSC[C@H](NC(=O)[C@H](CCCNC(=N)N)NC(=O)[C@H](CCCNC(=N)N)NC(=O)[C@H](C)NC(=O)[C@H](CCC(=O)O)NC(=O)[C@H](CC(=O)O)NC(=O)[C@H](C)NC(=O)[C@@H](CCC(=O)O)NC1=O)C(=O)N[C@@H](Cc1ccc(O)cc1)C(=O)N[C@@H](CC(N)=O)C(=O)N[C@@H](CC(=O)O)C(=O)N1CCC[C@H]1C(=O)N[C@@H](CCCCN)C(=O)N2
B4: ECII-18AA Cys/Ser mutant (Gln-)cyclopeptide (formula VI) (peptide)
peptide: cyclo(ADEARRCYNDPKCSDFVQ)
modifications: disulfide 7-13
SMILES: CC(C)[C@@H]1NC(=O)[C@H](Cc2ccccc2)NC(=O)[C@H](CC(=O)O)NC(=O)[C@H](CO)NC(=O)[C@@H]2CSSC[C@H](NC(=O)[C@H](CCCNC(=N)N)NC(=O)[C@H](CCCNC(=N)N)NC(=O)[C@H](C)NC(=O)[C@H](CCC(=O)O)NC(=O)[C@H](CC(=O)O)NC(=O)[C@H](C)NC(=O)[C@H](CCC(N)=O)NC1=O)C(=O)N[C@@H](Cc1ccc(O)cc1)C(=O)N[C@@H](CC(N)=O)C(=O)N[C@@H](CC(=O)O)C(=O)N1CCC[C@H]1C(=O)N[C@@H](CCCCN)C(=O)N2

Tests used:
[1] = biological target: anti-β1-ECII antibodies of GST/β1-ECII-immunized antibody-positive rats (sera or isolated IgG fractions) (rat); experiment: dose-dependent ELISA competition, n=6 rat sera
[2] = biological target: anti-β1-ECII antibodies in rat sera preferentially reacting with the Cys/Ser mutated cyclopeptides (type1 reaction, n=64) (rat); experiment: ELISA competition, type1 sera (n=64), linear 25AA Cys/Cys peptide as antigen
[3] = biological target: anti-β1-ECII antibodies in rat sera reacting with both the Cys/Ser and the Ser/Cys mutated cyclopeptides (type2 reaction, n=5) (rat); experiment: ELISA competition, type2 sera (n=5), linear 25AA Cys/Cys peptide as antigen
[4] = biological target: anti-β1-ECII antibodies of GST/β1-ECII-immunized antibody-positive rats (sera or isolated IgG fractions) (rat); experiment: ELISA after over-night incubation of n=6 rat sera with cyclopeptide (FIG. 27B, mean)
[5] = biological target: anti-β1-ECII antibodies of GST/β1-ECII-immunized antibody-positive rats (sera or isolated IgG fractions) (rat); experiment: ELISA competition, IgG of n=78 rats preincubated with peptide, linear 25AA Cys/Cys peptide as antigen

Binder | decrease in free anti-beta1-ECII antibodies (%) at 8-fold molar excess of peptide [1] | decrease in free anti-beta1-ECII antibodies (%) at 20-fold molar excess of peptide [1] | decrease in free anti-beta1-ECII antibodies (%) at 80-fold molar excess of peptide [1] | blocking capacity (% of blocked versus non-blocked ELISA-reactivity) [2] | blocking capacity (% of blocked versus non-blocked ELISA-reactivity) [3] | blocking-efficiency (% of the ELISA signals of unblocked sera) [4] | blocking capacity (% of blocked versus non-blocked ELISA-reactivity) [5] | decrease in receptor antibody-titers (%) at 8-fold molar excess of peptide [1] | decrease in receptor antibody-titers (%) at 20-fold molar excess of peptide [1] | decrease in receptor antibody-titers (%) at 80-fold molar excess of peptide [1]
cyclo(ADEARRCYNDPKCCDFVQ) (also: three Cys (7, 13, 14), disulfide pairing not defined) [3 Cys-containing β1-ECII-18AA Cys/Cys cyclopeptide] | 46% | 56% | 71% | 59% | 67% | 66.1% | 60% |  |  | 
B1 |  |  |  |  |  | 74.9% |  |  |  | 
B2 | 30% | 49% | 83% | 69% | 48% |  |  |  |  | 
cyclo(ADEARRCYNDPKSCDFV[dE]) (disulfide 7-14 (inferred)) [β1-ECII-18AA Ser/Cys cyclopeptide mutant with D-Glu ring closure (formula XII)] |  |  |  | 1% | 33% |  | 1% |  |  | 
cyclo(ARAESDEARRCYNDPKSCDFVTNRQ) (disulfide 11-18 (inferred)) [β1-ECII-25AA Ser/Cys mutant (Gln-)cyclopeptide (formula XI)] |  |  |  | 6% | 37% |  | 6% |  |  | 
cyclo(RAESDEARRCYNDPKCCDFVTG) (also: disulphide pairing among Cys10, Cys16, Cys17 not defined) [cyc22AA Cys/Cys, 3 cysteine-containing cyclic β1-ECII 22AA peptide with a Gly closure site] |  |  |  |  |  | 82% |  |  |  | 
ADEARRCYNDPKCSDFVQ [linear ECII-18AA Cys/Ser mutated (Gln18-)peptide] |  |  |  |  |  |  |  | 24% | 35% | 50%
B3 |  |  |  | 69% | 47% |  | 69% |  |  | 
cyclo(ARAESDEARRCYNDPKCCDFVTNRQ) (also: three Cys (11, 17, 18), disulfide pairing not defined) [3 Cys-containing β1-ECII-25AA Cys/Cys cyclopeptide] |  |  |  | 65% | 72% | 73.4% | 67% |  |  | 
cyclo(ADEARRCYNDPKSCDFVQ) (disulfide 7-14 (inferred)) [β1-ECII-18AA Ser/Cys mutant (Gln-)cyclopeptide (formula X)] |  |  |  | 1% | 47% |  |  |  |  | 
ARAESDEARRCYNDPKCCDFVTNRQ [linear non-mutated 3 Cys-containing ECII-25AA Cys/Cys (Gln25) peptide] |  |  |  |  |  |  | 55% | 24% | 35% | 50%
B4 | 53% | 66% | 85% | 68% | 50% | 60% |  |  |  | 
